Reference: article PMC8615399, “Novel Structures of Type 1 Glyceraldehyde-3-phosphate Dehydrogenase from Escherichia coli Provide New Insights into the Mechanism of Generation of 1,3-Bisphosphoglyceric Acid” (Biomolecules, 2021)

B1: glyceraldehyde-3-phosphate dehydrogenase type 1 from Escherichia coli, wild type (enzyme, UniProt P0A9B2 1-331, looked up)
chain: MTIKVGINGFGRIGRIVFRAAQKRSDIEIVAINDLLDADYMAYMLKYDSTHGRFDGTVEVKDGHLIVNGKKIRVTAERDPANLKWDEVGVDVVAEATGLFLTDETARKHITAGAKKVVMTGPSKDNTPMFVKGANFDKYAGQDIVSNASCTTNCLAPLAKVINDNFGIIEGLMTTVHATTATQKTVDGPSHKDWRGGRGASQNIIPSSTGAAKAVGKVLPELNGKLTGMAFRVPTPNVSVVDLTVRLEKAATYEQIKAAVKAAAEGEMKGVLGYTEDDVVSTDFNGEVCTSVFDAKAGIALNDNFVKLVSWYDNETGYSNKVLDLIAHISK
notes: glyceraldehyde-3-phosphate dehydrogenase type 1 (EcGAPDH1), Escherichia coli; EC 1.2.1.12; also called EcGAPDH1; WT; source: purified as previously described [24]
B2: EcGAPDH1 mutant H177A (enzyme, Escherichia coli, UniProt P0A9B2 1-331, looked up)
chain: MTIKVGINGFGRIGRIVFRAAQKRSDIEIVAINDLLDADYMAYMLKYDSTHGRFDGTVEVKDGHLIVNGKKIRVTAERDPANLKWDEVGVDVVAEATGLFLTDETARKHITAGAKKVVMTGPSKDNTPMFVKGANFDKYAGQDIVSNASCTTNCLAPLAKVINDNFGIIEGLMTTVAATTATQKTVDGPSHKDWRGGRGASQNIIPSSTGAAKAVGKVLPELNGKLTGMAFRVPTPNVSVVDLTVRLEKAATYEQIKAAVKAAAEGEMKGVLGYTEDDVVSTDFNGEVCTSVFDAKAGIALNDNFVKLVSWYDNETGYSNKVLDLIAHISK
notes: glyceraldehyde-3-phosphate dehydrogenase type 1 (EcGAPDH1), Escherichia coli; Made from the wild-type vector by overlap extension PCR; source: purified (Ni-NTA, size-exclusion chromatography)
B3: EcGAPDH1 mutant C150A (enzyme, Escherichia coli, UniProt P0A9B2 1-331, looked up)
chain: MTIKVGINGFGRIGRIVFRAAQKRSDIEIVAINDLLDADYMAYMLKYDSTHGRFDGTVEVKDGHLIVNGKKIRVTAERDPANLKWDEVGVDVVAEATGLFLTDETARKHITAGAKKVVMTGPSKDNTPMFVKGANFDKYAGQDIVSNASATTNCLAPLAKVINDNFGIIEGLMTTVHATTATQKTVDGPSHKDWRGGRGASQNIIPSSTGAAKAVGKVLPELNGKLTGMAFRVPTPNVSVVDLTVRLEKAATYEQIKAAVKAAAEGEMKGVLGYTEDDVVSTDFNGEVCTSVFDAKAGIALNDNFVKLVSWYDNETGYSNKVLDLIAHISK
notes: as for B2
B4: EcGAPDH1 mutant C150S (enzyme, Escherichia coli, UniProt P0A9B2 1-331, looked up)
chain: MTIKVGINGFGRIGRIVFRAAQKRSDIEIVAINDLLDADYMAYMLKYDSTHGRFDGTVEVKDGHLIVNGKKIRVTAERDPANLKWDEVGVDVVAEATGLFLTDETARKHITAGAKKVVMTGPSKDNTPMFVKGANFDKYAGQDIVSNASSTTNCLAPLAKVINDNFGIIEGLMTTVHATTATQKTVDGPSHKDWRGGRGASQNIIPSSTGAAKAVGKVLPELNGKLTGMAFRVPTPNVSVVDLTVRLEKAATYEQIKAAVKAAAEGEMKGVLGYTEDDVVSTDFNGEVCTSVFDAKAGIALNDNFVKLVSWYDNETGYSNKVLDLIAHISK
notes: as for B2
B5: EcGAPDH1 double mutant C150A+H177A (enzyme, Escherichia coli, UniProt P0A9B2 1-331, looked up)
chain: MTIKVGINGFGRIGRIVFRAAQKRSDIEIVAINDLLDADYMAYMLKYDSTHGRFDGTVEVKDGHLIVNGKKIRVTAERDPANLKWDEVGVDVVAEATGLFLTDETARKHITAGAKKVVMTGPSKDNTPMFVKGANFDKYAGQDIVSNASATTNCLAPLAKVINDNFGIIEGLMTTVAATTATQKTVDGPSHKDWRGGRGASQNIIPSSTGAAKAVGKVLPELNGKLTGMAFRVPTPNVSVVDLTVRLEKAATYEQIKAAVKAAAEGEMKGVLGYTEDDVVSTDFNGEVCTSVFDAKAGIALNDNFVKLVSWYDNETGYSNKVLDLIAHISK
notes: glyceraldehyde-3-phosphate dehydrogenase type 1 (EcGAPDH1), Escherichia coli; source: purified (Ni-NTA, size-exclusion chromatography)

Target: the molecule itself
Experiment: crystal structure; hanging-drop vapor diffusion at 20 °C, protein 30 mg/mL; space group P4(1)2(1)2; complexes with NAD and phosphate, G3P or BPG; four subunits (O, P, Q, R) in each structure

Stoichiometry N, 4:
B1
B2
B3
B4
B5
